*1 amine or outer side, *2 acyl side, *3 side chain or, on linkers, in order; H or OH if unused. Where no end group is shown, it is not given here. Side-chain parts run from the residue outwards. [ ]: non-standard residue; d: D form. The star is where a group is joined. Decanoyl(10-(4-HOOC-PhO)) = O=C(O)c1ccc(OCCCCCCCCCC(=O)*)cc1; αMePhe(2-F) = C[C@](N)(Cc1ccccc1F)C(=O)O; γGlu = O=C(O)[C@H](CCC(=O)[*:2])N[*:1]; C14 diacid = O=C(O)CCCCCCCCCCCCC(=O)*; αMeY = C[C@](N)(Cc1ccc(O)cc1)C(=O)O; αMeL = CC(C)C[C@](C)(N)C(=O)O; Nle = CCCC[C@H](N)C(=O)O; Orn = NCCC[C@H](N)C(=O)O; AEEA = NCCOCCOCC(=O)O; Om = not defined here; Aib = CC(C)(N)C(=O)O
T1: human GIP receptor (human, UniProt P48546 22-466)
T1 sequence (looked up): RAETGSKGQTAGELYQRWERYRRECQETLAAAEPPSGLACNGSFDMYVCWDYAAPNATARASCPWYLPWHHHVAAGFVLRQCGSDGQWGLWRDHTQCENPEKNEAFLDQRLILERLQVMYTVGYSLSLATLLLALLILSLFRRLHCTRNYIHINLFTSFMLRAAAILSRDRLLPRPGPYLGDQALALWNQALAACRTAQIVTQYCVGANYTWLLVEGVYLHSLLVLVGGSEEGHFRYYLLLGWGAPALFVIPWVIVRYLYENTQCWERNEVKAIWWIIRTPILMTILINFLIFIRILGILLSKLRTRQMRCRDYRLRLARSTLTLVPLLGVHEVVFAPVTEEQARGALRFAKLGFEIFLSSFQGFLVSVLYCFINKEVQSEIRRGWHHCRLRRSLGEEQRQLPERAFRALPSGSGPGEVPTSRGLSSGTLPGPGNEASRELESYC

T2: human GIP receptor (human) (UniProt P48546)
T2 sequence (looked up): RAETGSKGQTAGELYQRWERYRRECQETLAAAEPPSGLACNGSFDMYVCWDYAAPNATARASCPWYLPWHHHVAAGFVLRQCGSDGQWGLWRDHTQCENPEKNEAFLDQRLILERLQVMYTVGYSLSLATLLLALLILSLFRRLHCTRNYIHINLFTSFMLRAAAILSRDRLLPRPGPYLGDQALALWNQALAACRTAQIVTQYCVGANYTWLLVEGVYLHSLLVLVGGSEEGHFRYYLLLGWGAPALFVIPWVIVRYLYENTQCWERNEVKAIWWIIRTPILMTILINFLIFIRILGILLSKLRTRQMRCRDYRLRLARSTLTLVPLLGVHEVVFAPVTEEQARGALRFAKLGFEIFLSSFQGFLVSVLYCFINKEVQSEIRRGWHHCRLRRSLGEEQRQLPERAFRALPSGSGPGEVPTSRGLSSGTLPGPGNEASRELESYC


Key:
Experiment in all cases: cell-based or functional assay
[1] = molecular target: T1, human GIP receptor
[2] = molecular target: human GLP-1 receptor (human, UniProt P43220 24-463)
[3] = molecular target: human glucagon receptor (human, UniProt P47871 26-477)
[4] = molecular target: hGLP-1R (Homo sapiens, UniProt P43220)
[5] = molecular target: T2, human GIP receptor (human)
[6] = molecular target: human glucagon receptor (human) (UniProt P47871)

human glucagon receptor, sequence (P47871 26-477): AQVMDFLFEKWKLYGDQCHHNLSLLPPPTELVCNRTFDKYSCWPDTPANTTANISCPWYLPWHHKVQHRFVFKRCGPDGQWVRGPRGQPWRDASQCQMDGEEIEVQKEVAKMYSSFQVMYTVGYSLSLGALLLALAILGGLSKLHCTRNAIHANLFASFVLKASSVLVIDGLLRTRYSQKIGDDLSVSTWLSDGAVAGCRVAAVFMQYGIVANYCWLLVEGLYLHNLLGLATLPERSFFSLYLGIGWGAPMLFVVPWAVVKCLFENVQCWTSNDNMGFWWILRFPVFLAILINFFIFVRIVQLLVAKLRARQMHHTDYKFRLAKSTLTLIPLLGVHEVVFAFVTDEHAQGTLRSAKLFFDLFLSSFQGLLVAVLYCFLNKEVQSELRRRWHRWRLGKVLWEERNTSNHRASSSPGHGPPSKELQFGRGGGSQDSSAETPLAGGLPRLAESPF

Binder | cAMP EC50 (1.0% HSA) [1] [nM] | cAMP Emax (1.0% HSA) [1] [%] | cAMP EC50 (1.0% HSA) [2] [nM] | cAMP EC50 (1.0% HSA) [3] [nM] | cAMP Emax (1.0% HSA) [2] [%] | cAMP EC50 [4] [nM] | cAMP Emax [4] [%] | cAMP EC50 [5] [nM] | cAMP Emax [5] [%] | cAMP EC50 [6] [nM]
Y[Aib]EGT[αMePhe(2-F)]TSD[Nle]SI[αMeL]LD[Orn]QAQ[Aib][Orn]FIK([AEEA-AEEA-γGlu-C14 diacid])[αMeY]LIK([AEEA-AEEA-γGlu-C14 diacid])GGPSSGAPPPS-NH2 [Example 490] | 0.976 | 97.1 | 7.68 | > 9950 | – | – | – | – | – | –
YXEGTXTSDYXIXLDXIAQXXFIKXLIKGGPSSGAPPPS (Y-Aib-EGT-αMeF(2F)-TSDY-Aib-I-αMeL-LD-Orn-IAQ-Aib-Orn-FIK((2-[2-(2-Amino-ethoxy)-ethoxy]-acetyl)3-(γ-Glu)--(10-(4-carboxyphenoxy)decanoyl))-αMeY-LIK((2-[2-(2-Amino-ethoxy)-ethoxy]-acetyl)3-(γ-Glu)--(10-(4-carboxyphenoxy)decanoyl))GGPSSGAPPPS-NH2) [Example 481] | 0.467 | – | 6.16 | > 9950 | 112 | – | – | – | – | –
YXEGTXTSDYXIXLDXQAQXXFIKXLIKGGPSSGAPPPS (Y-Aib-EGT-αMeF(2F)-TSDY-Aib-I-αMeL-LD-Orn-QAQ-Aib-Orn-FIK((2-[2-(2-Amino-ethoxy)-ethoxy]-acetyl)2-(γ-Glu)--C10_4CP)-αMeY-LIK((2-[2-(2-Amino-ethoxy)-ethoxy]-acetyl)2-(γ-Glu)--C10_4CP)GGPSSGAPPPS-NH2) [Example 492] | 0.371 | 88.7 | 4.31 | > 9950 | 104 | – | – | – | – | –
YXEGTXTSDXSIXLDXQAQXXFIKXLIKGGPSSGAPPPS (Y-Aib-EGT-αMeF(2F)-TSD-hY-SI-αMeL-LD-Orn-QAQ-Aib-Orn-FIK((2-[2-(2-Amino-ethoxy)-ethoxy]-acetyl)2-(γ-Glu)-CO-(CH2)12-CO2H)-αMeY-LIK((2-[2-(2-Amino-ethoxy)-ethoxy]-acetyl)2-(γ-Glu)-CO-(CH2)12-CO2H)GGPSSGAPPPS-NH2) [Example 491] | 1.08 | 87.5 | 5.51 | > 9950 | – | – | – | – | – | –
Y[Aib]EGT[αMePhe(2-F)]TSDV[Aib]I[αMeL]LD[Orn]K([AEEA-AEEA-γGlu-Decanoyl(10-(4-HOOC-PhO))])AQ[Aib][Om]FI[dE][αMeY]LIK([AEEA-AEEA-γGlu-Decanoyl(10-(4-HOOC-PhO))])GGPSSGAPPPS-NH2 (reading uncertain; also: printed as Y-Aib-EGT-αMeF(2F)-TSDV-Aib-I-αMeL-LD-Orn-K((2-[2-(2-Amino-ethoxy)-ethoxy]-acetyl)2-(γ-Glu)-(10-(4-carboxyphenoxy)decanoyl))AQ-Aib-Om-FI-(D-Glu)-αMeY-LIK((2-[2-(2-Amino-ethoxy)-ethoxy]-acetyl)2-(γ-Glu)-(10-(4-carboxyphenoxy)decanoyl))GGPSSGAPPPS-NH2) [Example 353] | 5.35 | 84.8 | 7.12 | > 9950 | 92.5 | 0.203 | 98 | 0.0249 | 98.2 | > 9950
YXEGTXTSDXXIXLDXKAQXKFIXXLIEGGPSSGAPPPS (Y-Aib-EGT-αMeF(2F)-TSD-4Pal-Aib-I-αMeL-LD-Orn-K((2-[2-(2-Amino-ethoxy)-ethoxy]-acetyl)2-(γ-Glu)-CO-(CH2)12-CO2H)AQ-Aib-K((2-[2-(2-Amino-ethoxy)-ethoxy]-acetyl)2-(γ-Glu)-CO-(CH2)12-CO2H)FI-(D-Glu)-αMeY-LIEGGPSSGAPPPS-NH2) [Example 357] | 1.19 | – | 36.2 | > 9950 | 92.8 | 0.649 | 107 | 0.011 | 99.9 | > 10100
YXEGTXTSDXXIXLDXQAQXXFIKXLIKGGPSSGAPPPS (Y-Aib-EGT-αMeF(2F)-TSD-4Pal-Aib-I-αMeL-LD-Orn-QAQ-Aib-Orn-FIK((2-[2-(2-Amino-ethoxy)-ethoxy]-acetyl)-(γ-Glu)-(2-[2-(2-Amino-ethoxy)-ethoxy]-acetyl)-(γ-Glu)-(10-(4-carboxyphenoxy)decanoyl))-αMeY-LIK((2-[2-(2-Amino-ethoxy)-ethoxy]-acetyl)-(γ-Glu)-(2-[2-(2-Amino-ethoxy)-ethoxy]-acetyl)-(γ-Glu)-(10-(4-carboxyphenoxy)decanoyl))GGPSSGAPPPS-NH2) [Example 485] | 0.536 | – | 3.9 | > 9950 | – | – | – | – | – | –
YXEGTXTSDYXIXLDXKAQXKFIXXLIEGGPSSGAPPPS (Y-Aib-EGT-αMeF(2F)-TSDY-Aib-I-αMeL-LD-Orn-K((2-[2-(2-Amino-ethoxy)-ethoxy]-acetyl)-(γ-Glu)-CO-(CH2)12-CO2H)AQ-Aib-K((2-[2-(2-Amino-ethoxy)-ethoxy]-acetyl)-(γ-Glu)-CO-(CH2)12-CO2H)FI-(D-Glu)-αMeY-LIEGGPSSGAPPPS-NH2) [Example 366] | 3.14 | 95.9 | 96.2 | > 9950 | – | 0.279 | 89.6 | 0.0162 | 108 | > 9950
YXEGTXTSDYXIXLDXKAQXKFIXXLIEGGPSSGAPPPS (Y-Aib-EGT-αMeF(2F)-TSDY-Aib-I-αMeL-LD-Orn-K((2-[2-(2-Amino-ethoxy)-ethoxy]-acetyl)-(γ-Glu)-(10-(4-carboxyphenoxy)decanoyl))AQ-Aib-K((2-[2-(2-Amino-ethoxy)-ethoxy]-acetyl)-(γ-Glu)-(10-(4-carboxyphenoxy)decanoyl))FI-(D-Glu)-αMeY-LIEGGPSSGAPPPS-NH2) [Example 372] | 3.75 | 90.6 | 38 | > 9950 | – | 0.291 | 108 | 0.0112 | 97.3 | > 9950
YXEGTXTSDXXIXLDXQAQXXFIKXLIKGGPSSGAPPPS (Y-Aib-EGT-αMeF(2F)-TSD-4Pal-Aib-I-αMeL-LD-Orn-QAQ-Aib-Orn-FIK((2-[2-(2-Amino-ethoxy)-ethoxy]-acetyl)-(γ-Glu)3-CO-(CH2)12-CO2H)-αMeY-LIK((2-[2-(2-Amino-ethoxy)-ethoxy]-acetyl)-(γ-Glu)3-CO-(CH2)12-CO2H)GGPSSGAPPPS-NH2) [Example 486] | 0.239 | – | 2 | > 9950 | – | – | – | – | – | –

Source: patent US20230265151A1, “GIP/GLP1 CO-AGONIST COMPOUNDS” (priority 2020, published 2023)
